Experimental data taken from PMC3807708.

Columns and labels:
Assay in all cases: SPR; ProteOn XPR36; His-tagged receptor immobilised on Ni2+-activated HTG chip; IFN-γ-SC as analyte, 1.2 to 99 nM; PBST (PBS pH 7.4, 0.005% Tween20); 25°C; 1:1 Langmuir with drift model; doubly referenced
[1] = target: IFN-γ-Rx N70G + S95R + H222R (human) (UniProt P15260)
IFN-γ-Rx K115Y (human) = IFN-γ-Rx K115Y (human) (UniProt P15260)
[2] = target: IFN-γ-Rx N70G + H222R (human) (UniProt P15260)
IFN-γ-Rx S95R (human) = IFN-γ-Rx S95R (human) (UniProt P15260)
IFN-γ-Rx N96F (human) = IFN-γ-Rx N96F (human) (UniProt P15260)
IFN-γ-Rx T166Y (human) = IFN-γ-Rx T166Y (human) (UniProt P15260)
IFN-γ-Rx N96W (human) = IFN-γ-Rx N96W (human) (UniProt P15260)

Kd [1]: 37 nM
koff [1]: 0.0401 s⁻¹
kon [1]: 1.09e+06 M⁻¹ s⁻¹
Kd (IFN-γ-Rx K115Y (human)): 39.9 nM
koff (IFN-γ-Rx K115Y (human)): 0.0391 s⁻¹
kon (IFN-γ-Rx K115Y (human)): 979000 M⁻¹ s⁻¹
Kd [2]: 26.9 nM
koff [2]: 0.0391 s⁻¹
kon [2]: 1.46e+06 M⁻¹ s⁻¹
Kd (IFN-γ-Rx S95R (human)): 69.8 nM
koff (IFN-γ-Rx S95R (human)): 0.0454 s⁻¹
kon (IFN-γ-Rx S95R (human)): 650000 M⁻¹ s⁻¹
Kd (IFN-γ-Rx N96F (human)): 28 nM
koff (IFN-γ-Rx N96F (human)): 0.0283 s⁻¹
kon (IFN-γ-Rx N96F (human)): 1.01e+06 M⁻¹ s⁻¹
Kd (IFN-γ-Rx T166Y (human)): 83.1 nM
koff (IFN-γ-Rx T166Y (human)): 0.0782 s⁻¹
kon (IFN-γ-Rx T166Y (human)): 940000 M⁻¹ s⁻¹
Kd (IFN-γ-Rx N96W (human)): 6.34 nM
koff (IFN-γ-Rx N96W (human)): 0.00909 s⁻¹
kon (IFN-γ-Rx N96W (human)): 1.43e+06 M⁻¹ s⁻¹
Substance: single-chain form of human interferon-γ (IFN-γ-SC) (ligand)
